Test [1] concerns the target phosphorylated Nedd4-2^186–975 (human) (UniProt Q96PU5). The test can be described thus: SEC-SAXS; Superdex 200 Increase 5/150 GL, 20 mM Tris-HCl pH 7.5, 150 mM NaCl, 1 mM TCEP, 3% glycerol, 293.15 K; loaded 2.2 mg/ml Nedd4-2^186–975, 2 mg/ml 14-3-3η, 8.9 mg/ml complex (1:2, 60 μM).
For test [2] the target is unchanged. The test can be described thus: AUC; sedimentation velocity, 20 °C, 50 mM Tris-HCl pH 8.0, 500 mM NaCl, 1 mM TCEP, 0.01% NP-40; 3 μM pNedd4-2^186–975 alone, 6 μM 14-3-3η alone, mixtures 1:1 and 1:2; 300 nM pNedd4-2^186–975 with 0.06−6 μM 14-3-3η; apparent KD, sw isotherm and Lamm-equation modelling, 14-3-3η dimer + one pNedd4-2.

Sequence of phosphorylated Nedd4-2^186–975 (human) (Q96PU5 186-975): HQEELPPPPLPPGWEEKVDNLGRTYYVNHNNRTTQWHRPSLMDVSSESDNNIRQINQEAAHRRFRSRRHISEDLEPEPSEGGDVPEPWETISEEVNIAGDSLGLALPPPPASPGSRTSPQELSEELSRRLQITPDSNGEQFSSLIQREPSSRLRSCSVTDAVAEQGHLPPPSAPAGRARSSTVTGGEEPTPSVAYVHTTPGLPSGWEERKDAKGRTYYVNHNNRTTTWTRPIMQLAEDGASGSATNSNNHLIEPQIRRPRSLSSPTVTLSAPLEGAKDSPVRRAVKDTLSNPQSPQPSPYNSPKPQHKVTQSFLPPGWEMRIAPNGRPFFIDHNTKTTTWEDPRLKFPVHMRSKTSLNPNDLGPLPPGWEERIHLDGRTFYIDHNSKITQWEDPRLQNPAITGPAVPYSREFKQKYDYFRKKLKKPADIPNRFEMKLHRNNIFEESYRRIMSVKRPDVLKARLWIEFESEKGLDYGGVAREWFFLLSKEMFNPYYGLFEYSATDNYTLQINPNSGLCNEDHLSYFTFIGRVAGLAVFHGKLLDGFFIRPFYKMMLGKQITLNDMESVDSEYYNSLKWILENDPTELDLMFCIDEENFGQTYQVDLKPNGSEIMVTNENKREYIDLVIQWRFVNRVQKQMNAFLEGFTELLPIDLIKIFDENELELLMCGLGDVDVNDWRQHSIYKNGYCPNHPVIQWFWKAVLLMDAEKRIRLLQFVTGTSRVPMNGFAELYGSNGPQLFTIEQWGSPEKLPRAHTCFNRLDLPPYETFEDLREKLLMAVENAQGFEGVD

In the case of “14-3-3η (from UniProt Q04917 1-246) (natural protein)”, the stoichiometry N (14-3-3η protomers per Nedd4-2 protomer) in test [1] and in test [2] was 2 each time. Also, in test [2], the Kd was under 50 nM.

The record behind these values is article PMC8298602, “14-3-3-protein regulates Nedd4-2 by modulating interactions between HECT and WW domains” (Communications Biology, 2021).
